In one series the test system is ZFN r2182-8 (synthetic). The series can be described thus: cell_activity. Conditions: pair with 2189-11; K562 cells, 50 bp HA linear donor 6.9 ug; targeted integration 2-9.4% over donors, 0% without ZFN.
The next series concerns ZFN 2189-11 (synthetic). The experiment in a line: cell_activity. To be noted: pair with r2182-8; K562 cells, 50 bp HA linear donor 6.9 ug; targeted integration 2-9.4% over donors, 0% without ZFN.

The results in this text go back to US20090263900.

In the series on ZFN r2182-8 (synthetic), “CCCCACTGTGGGGTGG (double strand) [AAVS1 r2182-8 target half-site]” displayed an activity of 9.4 % TI. In the series with ZFN 2189-11 (synthetic), “ACTAGGGACAGGATTG (double strand) [AAVS1 2189-11 target half-site]” gave an activity of 9.4 % TI.
